Results published in patent US20240366776A1 (Hoffmann-La Roche, published 2024).

B1: PD1-IL2-R07-A09 (SEQ ID NO: 34) (scFv)
scFv: QVQLVQSGAEVKKPGASVKVSCKASGYTFTSYYMHWVRQAPGQGLEWMGIINPSDGSTTYAQSFQGRVTMTRDTSTSTVYMELSSLRSEDTAVYYCASGWDVWGQGTLVTVSSASGGGGSGGGGSGGGGSHASDIVMTQSPDSLAVSLGERATINCKSSQSVFSSANNKNYLAWYQQKPGQPPKLLIYWASTRESGVPDRFSGSGSGTDFTLTISSLQAEDVAVYYCQQYFGTPVTFGGGTKVEIK
notes: V5-tagged in the assay
B2: PD1-IL2-R06-E04 (SEQ ID NO: 33) (scFv)
scFv: QVQLVQSGAEVKKPGASVKVSCKASGYTFTRYYIHWVRQAPGQGLEWMGWINAYNGDTNYAQKLQGRVTMTRDTSTSTVYMELSSLRSEDTAVYYCARDSYYYDSFDYWGQGTLVTVSSASGGGGSGGGGSGGGGSHASDIQMTQSPSSLSASVGDRVTITCRASQTITDWLAWYQQKPGKAPKLLIYGASNLQGGVPSRFSGSGSGTDFTLTISSLQPEDFATYYCQQYYSSWTFGQGTKVEIK
notes: V5-tagged in the assay
B3: PD1-IL2-R02-B05 (scFv)
chain: QVQLVQSGAEVKKPGASVKVSCKASGYTFTNYYIHWVRQAPGQGLEWMGIINPRAGYTSYALKFQGRVTMTRDTSTSTVYMELSSLRSEDTAVYYCAGGWLDWGQGTLVTVSSASGGGGSGGGGSGGGGSHASDIQMTQSPSSLSASVGDRVTITCRASQSISSWLAWYQQKPGKAPKLLIYAASSLQSGVPSRFSGSGSGTDFTLTISSLQPEDFATYYCQQSFTMPITFGQGTRLEIK
B4: PD1-IL2-R02-C03 (SEQ ID NO: 32) (scFv)
scFv: QVQLVQSGAEVKKPGASVKVSCKASGYTFPRYHIHWVRQAPGQGLEWMGMINPSGGTTTYAQKFQGRVTMTRDTSTSTVYMELSSLRSEDTAVYYCARDTGLGYYYGSGDFDYWGQGTLVTVSSASGGGGSGGGGSGGGGSHASDIQMTQSPSSLSASVGDRVTITCRASQSISSWLAWYQQKPGKAPKLLIYAASSLQSGVPSRFSGSGSGTDFTLTISSLQPEDFATYYCQQSHSFPLTFGGGTKVEIK
notes: V5-tagged in the assay
B5: PD1-IL2-R02-B07 (scFv)
chain: QVQLVQSGAEVKKPGASVKVSCKASGDTFTRHYVHWVRQAPGQGLEWMGIINPSGGYASYAQKFQGRVTMTRDTSTSTVYMELSSLRSEDTAVYYCAAGLFIWGQGTLVTVSSASGGGGSGGGGSGGGGSHASDIQMTQSPSSLSASVGDRVTITCRASQSIGRWLAWYQQKPGKAPKLLIYSASNLETGVPSRFSGSGSGTDFTLTISSLQPEDFATYYCQQANSFPVTFGPGTKVDIK
B6: PD1-IL2-R02-A08 (scFv, V domains shown)
VH: QVQLVQSGAEVKKPGASVKVSCKVSGYTFTSYDINWVRQAPGQGLEWMGWINPNSGDTGYAQKFQGRVTMTRDTSTSTVYMELSSLRSEDTAVYYCARDTGLGYYYGSGDFDYWGQGTLVTVSS
VL: DIQMTQSPSSLSASVGDRVTITCQASQDIHNYLNWYQQKPGKAPKLLIYDVSNLETGVPSRFSGSGSGTDFTLTISSLQPEDFATYYCQQAISFPLTFGGGTKVEIK
notes: cf
B7: PD1-IL2-R07-A04 (scFv)
chain: QVQLVQSGAEVKKPGASVKVSCKASGYTFTDYYMHWVRQAPGQGLEWMGIINPRAGYTSYALKFQGRVTMTRDTSTSTVYMELSSLRSEDTAVYYCTSGMDVWGQGTLVTVSSASGGGGSGGGGSGGGGSHASDIQMTQSPSSLSASVGDRVTITCRASQSISTWLAWYQQKPGKAPKLLIYAASSLQSGVPSRFSGSGSGTDFTLTISSLQPEDFATYYCQQSYSFPVTFGQGTKVEIK
B8: PD1-R07-A05 (scFv)
scFv: QVQLVQSGAEVKKPGASVKVSCKASGYTFTTYYVHWVRQAPGQGLEWMGIINPSGGSTSYAQNFQGRVTMTRDTSTSTVYMELSSLRSEDTAVYYCASGWDVWGQGTTVTVSSASGGGGSGGGGSGGGGSHASEIVMTQSPATLSVSPGERATLSCRASQSVNTYLAWYQQKPGQAPRLLIYGASTRATGIPARFSGSGSGTEFTLTISSLQSEDFAVYYCQQYGSSPVTFGQGTRLEIK
B9: PD1-R04-C10 (scFv)
scFv: MSTSTEQKLISEEDLQVQLVQSGAEVKKPGASVKVSCKASGYTFTTYYMHWVRQAPGQGLEWMGIINPSGGGTLYAQKFQGRVTMTRDTSTSTVYMELSSLRSEDTAVYYCAAGLFIWGQGTTVTVSSASGGGGSGGGGSGGGGSHASDIVMTQSPDSLAVSLGERATINCKASQSLLHSSSNKNYLAWYQQKPGQPPKLLIYWASTRESGVPDRFSGSGSGTDFTLTISSLQAEDVAVYYCQQYYSTPITFGPGTKVDIKGSGLNDIFEAQKIEWHEGKPIPNPLLGLDST
notes: tied by the comment 'PD1_R04_C10- Internal anti-PD1 mAb' of PEP001315
B10: PD1-IL2-R02-C02 (SEQ ID NO: 31) (scFv)
scFv: QVQLVQSGAEVKKPGVSVKVSCKASGYTFPRSYIHWVRQAPGQGLEWMGWINPHSGDTYYAQNFQGRVTMTRDTSTSTVYMELSSLRSEDTAVYYCARDTGLGYYYGSGDFDYWGQGTLVTVSSASGGGGSGGGGSGGGGSHASDIQMTQSPSSLSASVGDRVTITCRASQSISRYLNWYQQKPGKAPKLLIYTASSLQSGVPSRFSGSGSGTDFTLTISSLQPEDFATYYCQQANRFPLTFGPGTKVDIK
notes: V5-tagged in the assay
B11: PD1-IL2-R02-A11 (scFv, V domains shown)
VH: QVQLVQSGAEVKKPGASVKVSCKASGHTFTRYYMHWVRQAPGQGLEWMGIINPSGGYATYAQKFQGRVTMTRDTSTSTVYMELSSLRSEDTAVYYCASGWDVWGQGTLVTVSS
VL: DIQMTQSPSSLSASVGDRVTITCRASQSINSWLAWYQQKPGKAPKLLIYATSTLESGVPSRFSGSGSGTDFTLTISSLQPEDFATYYCQQSYSFPPTFGQGTKVEIK
notes: cf
B12: AF4389 (other)
heavy 1: APTSSSTKKTQLQLEHLLLDLQMILNGINNYKNPKLTDMLTFEFYMPKKATELKHLQCLERELKPLEEVLNLAQSKNFHLRPRDLISNINVIVLELKGSETTFMCEYADETATIVEFLNRWITFCQSIISTLTGGGGSGGGGSGGGGSGGGGSQVQLVQSGAEVKKPGASVKVSCKASGHTFTRYYMHWVRQAPGQGLEWMGIINPSGGYATYAQKFQGRVTMTRDTSTSTVYMELSSLRSEDTAVYYCASGLFIWGQGTLVTVSSAKTTAPSVYPLAPVCGDTTGSSVTLGCLVKGYFPEPVTLTWNSGSLSSGVHTFPAVLQSDLYTLSSSVTVTSSTWPSQSITCNVAHPASSTKVDKKIEPRGPTIKPCPPCKCPAPNAAGGPSVFIFPPKIKDVLMISLSPIVTCVVVDVSEDDPDVQISWFVNNVEVHTAQTQTHREDYNSTLRVVSALPIQHQDWMSGKEFKCKVNNKDLGAPIERTISKPKGSVRAPQVYVLPPPEEEMTKKQVTLTCMVTDFMPEDIYVEWTNNGKTELNYKNTEPVLDSDGSYFMYSDLRVEKKNWVERNSYSCSVVHEGLHNHHTTESFSRTPGK
heavy 2: QVQLVQSGAEVKKPGASVKVSCKASGHTFTRYYMHWVRQAPGQGLEWMGIINPSGGYATYAQKFQGRVTMTRDTSTSTVYMELSSLRSEDTAVYYCASGLFIWGQGTLVTVSSAKTTAPSVYPLAPVCGDTTGSSVTLGCLVKGYFPEPVTLTWNSGSLSSGVHTFPAVLQSDLYTLSSSVTVTSSTWPSQSITCNVAHPASSTKVDKKIEPRGPTIKPCPPCKCPAPNAAGGPSVFIFPPKIKDVLMISLSPIVTCVVVDVSEDDPDVQISWFVNNVEVHTAQTQTHREDYNSTLRVVSALPIQHQDWMSGKEFKCKVNNKDLGAPIERTISKPKGSVRAPQVYVLPPPEKEMTKKQVSLTCLVKDFMPEDIYVEWTNNGKTELNYKNTEPVLKSDGSYFMYSKLTVEKKNWVERNSYSCSVVHEGLHNHHTTKSFSRTPGGGGSGGGSHHHHHH
light: DIQMTQSPSSLSASVGDRVTITCRASQSINSWLAWYQQKPGKAPKLLIYATSTLESGVPSRFSGSGSGTDFTLTISSLQPEDFATYYCQQYYRFPVTFGQGTKVEIKRADAAPTVSIFPPSSEQLTSGGASVVCFLNNFYPKDINVKWKIDGSERQNGVLNSWTDQDSKDSTYSMSSTLTLTKDEYERHNSYTCEATHKTSTSPIVKSFNRNEC

Target: T1, human IL-2 (human, UniProt P60568 21-153, biotin-labeled in the IL2RB blocking assay)
T1 construct: also called biotin-labeled IL-2 (Acro Biosystems IL2-H82E4)
T1 sequence (P60568 21-153 limits assumed): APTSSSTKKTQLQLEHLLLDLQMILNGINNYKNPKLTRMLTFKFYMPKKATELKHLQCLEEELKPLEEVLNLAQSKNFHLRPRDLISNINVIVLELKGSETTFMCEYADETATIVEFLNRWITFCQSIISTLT
Test: HTRF IL-2:IL2RB

| IL2RB Blocking | Binder |
| --- | --- |
| 910 | B1 |
| 1110 | B2 |
| 1610 | B3 |
| 1210 | B4 |
| 1810 | B5 |
| 1610 | B6 |
| 1610 | B7 |
| 1730 | B8 |
| 1550 | B9 |
| 1070 | B10 |
| 1780 | B11 |

Target: PD-1-Fc (UniProt Q15116 25-167, limits assumed)
Sequence (Q15116 25-167 limits assumed): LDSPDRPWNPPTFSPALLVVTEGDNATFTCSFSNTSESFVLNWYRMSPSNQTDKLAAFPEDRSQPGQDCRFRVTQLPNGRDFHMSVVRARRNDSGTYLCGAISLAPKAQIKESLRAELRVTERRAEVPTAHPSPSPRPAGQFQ
Test: cell-based or functional assay

| IL-2 activity EC50, HEK-Blue IL-2 reporter cells, IgG1 coated wells (control) [nM] | IL-2 activity EC50, HEK-Blue IL-2 reporter cells, PD-1 coated wells [nM] | Binder |
| --- | --- | --- |
| 1.67 | 0.118 | B12 |

Target: T1, human IL-2
Test: HTRF

| IL2 Binding | Binder |
| --- | --- |
| 2040 | B1 |
| 247 | B2 |
| 2490 | B3 |
| 293 | B4 |
| 628 | B5 |
| 520 | B6 |
| 973 | B7 |
| 19 | B8 |
| 4 | B9 |
| 298 | B10 |
| 1560 | B11 |

Target: PD-1 (human, UniProt Q15116 25-167, limits assumed)
Sequence (Q15116 25-167 limits assumed): as above
Test: HTRF

| PD1 Binding | Binder |
| --- | --- |
| 1240 | B1 |
| 50 | B2 |
| 1660 | B3 |
| 1380 | B4 |
| 1680 | B5 |
| 995 | B6 |
| 730 | B7 |
| 653 | B8 |
| 1550 | B9 |
| 1300 | B10 |
| 1620 | B11 |
